Kd data for three molecules are collected here from PMC2654718 (Biochemistry, 2009).

Ends that are not written are not given here.

The assay deals with MBP-VDR-LBDmt (human). Briefly: fluorescence polarisation. In general terms: In fluorescence polarisation assays a small probe gives low polarisation when free and higher when bound to something large.
As usually defined, the Kd is the constant that tells how readily two partners part at equilibrium. Read a low Kd as a tighter complex. With C(Texas Red maleimide)QAANNSLLLHLLKSQTIPK [RIP140-5 peptide, Texas Red labeled], the Kd was under 20 µM.

Molecule C(Texas Red maleimide)AASKHKQLSELLRSGSSPN [P300 peptide, Texas Red labeled] registered a Kd of over 20 µM.

C(Texas Red maleimide)KVSQNPILTSLLQITGNGG [DRIP205-1 peptide, Texas Red labeled] displayed a Kd of over 20 µM.
